Measurements published in US20190359712A1 (Daiichi Sankyo, published 2019).

T1: human CD3εγ single-chain antigen (human)
T1 construct: also called scCD3εγ; His-scCD3 antigen
T1 chain: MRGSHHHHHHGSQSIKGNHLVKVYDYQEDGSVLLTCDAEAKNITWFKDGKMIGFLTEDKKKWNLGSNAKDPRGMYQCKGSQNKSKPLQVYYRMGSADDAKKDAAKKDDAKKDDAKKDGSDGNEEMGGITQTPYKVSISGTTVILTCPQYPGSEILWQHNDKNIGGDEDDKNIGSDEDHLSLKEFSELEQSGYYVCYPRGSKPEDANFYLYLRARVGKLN

T2: human TROP2 on FaDu and HPAF-II cells (human, UniProt P09758 27-323)
T2 construct: whole, on cells
T2 sequence (looked up): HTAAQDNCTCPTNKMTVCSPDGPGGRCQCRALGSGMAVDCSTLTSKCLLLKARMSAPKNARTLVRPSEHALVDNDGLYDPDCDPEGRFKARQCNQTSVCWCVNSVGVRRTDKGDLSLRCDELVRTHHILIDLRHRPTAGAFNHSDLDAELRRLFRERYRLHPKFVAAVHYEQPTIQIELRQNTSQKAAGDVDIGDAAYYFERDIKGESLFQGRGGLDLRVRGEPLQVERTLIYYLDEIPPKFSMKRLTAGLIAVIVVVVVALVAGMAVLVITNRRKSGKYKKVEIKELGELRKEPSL


Experiments:
[1] = biological target: T3, cynomolgus monkey CD3 on cynomolgus monkey PBMC or T cell line HSC-F (cynomolgus monkey, UniProt Q95LI5 22-198); test: flow cytometry on cynomolgus monkey PBMC
T3 construct: whole, on cells; Native CD3 complex on monkey T cells; also called cynomolgus monkey CD3 (PBMC); cynomolgus monkey CD3 antigen

[2] = biological target: T1, human CD3εγ single-chain antigen; test: complex mixed at a molar ratio of 1:2, purified by gel filtration and crystallized
Protocol: The buffer solution was replaced with 10 mM Tris HCl (pH 7.5) and 50 mM NaCl using Amicon Ultra 15 MWCO 10K (Merck Millipore), and the resulting solution was concentrated to 3.5 mg/mL. This concentrate was purified by gel filtration chromatography using Superdex 200 10/300GL (GE Healthcare Bio-Sciences Corp.). A fraction of the complex was concentrated into approximately 4.0 mg/mL using Amicon Ultra 15 MWCO 10K (Millipore).
To 0.5 μL of the protein solution, an equal amount of a precipitant solution (0.1 M MES monohydrate (pH 6.5), 1.6 M ammonium sulfate, and 10% v/v 1,4-dioxane) was added, and the resulting solution was placed in a sealed container containing 0.05 mL of a precipitant solution so that the solutions had no contact with each other. The container was left standing at 25° C. One month later, 0.1 mm×0.05 mm×0.05 mm rod-like crystals were obtained.

human CD3 on human PBMC = biological target: T4, human CD3 on human PBMC (human, UniProt P07766 23-207); test: flow cytometry on human PBMC, Penta-His Alexa Fluor 488 detection (rMFI)
T4 construct: Native CD3 complex on T cells in PBMC; the other chains of the complex are native; also called human CD3 (PBMC)
Protocol: Commercially available human PBMC (Cellular Technology Ltd. (CTL)) was adjusted to an appropriate concentration with PBS containing 5% FBS. LIVE/DEAD Fixable Near-IR Dead Cell Stain Kit (Thermo Fisher Scientific Inc.) and an anti-CD19 antibody (Beckman Coulter Inc.) were added to the cells, which were then left standing at 4° C. for 30 minutes. The cells were washed twice with PBS containing 5% FBS, then adjusted to a concentration of 1×10⁶ cells/mL with PBS containing 5% FBS, added at a concentration of 100 μL/well to a 96-well U-bottomed microplate, and centrifuged to remove a supernatant. […] The cells were washed twice with PBS containing 5% FBS. Then, Penta-His Alexa Fluor 488 (Qiagen N.V.) diluted with PBS containing 5% FBS was added at a concentration of 30 μL/well, and the plate was left standing at 4° C. for 30 minutes. The cells were washed twice with PBS containing 5% FBS and then resuspended in PBS containing 5% FBS, followed by detection using a flow cytometer (FACSCanto™ II; Becton, Dickinson and Company). The data was analyzed using Flowjo (Tree Star Inc.). The mean fluorescence intensity (MFI) of Alexa Fluor 488 in a fraction free of dead cells and CD19-positive cells was calculated. The MFI value of the scFv-unsupplemented sample was subtracted from the MFI value of the scFv-supplemented sample to calculate a relative value of MFI (rMFI).

[3] = biological target: T5, CD3 immobilized on a sensor chip (Example 7)-1-2); test: SPR (BIAcore T-200), CD3 immobilized, scFv injected at five concentrations; concentration giving 1/2 Rmax
T5 construct: the text says only 'CD3 immobilized on a sensor chip'; also called human CD3
Protocol: Five different concentrations of the scFv were injected into CD3 immobilized on a sensor chip. Rmax was estimated from the resulting response, and the antibody concentration that reached 1/2 thereof was defined as the dissociation constant of the scFv for CD3.

[4] = biological target: T2, human TROP2 on FaDu and HPAF-II cells; test: flow cytometry on FaDu and HPAF-II cells, Penta-His Alexa Fluor 488 detection (rMFI)
Protocol: The cells were washed twice with PBS containing 5% FBS, then adjusted to a concentration of 1×10⁶ cells/mL with PBS containing 5% FBS, added at a concentration of 100 μL/well to a 96-well U-bottomed microplate, and centrifuged to remove a supernatant. […] The cells were washed twice with PBS containing 5% FBS.

T3 sequence (Q95LI5 22-198): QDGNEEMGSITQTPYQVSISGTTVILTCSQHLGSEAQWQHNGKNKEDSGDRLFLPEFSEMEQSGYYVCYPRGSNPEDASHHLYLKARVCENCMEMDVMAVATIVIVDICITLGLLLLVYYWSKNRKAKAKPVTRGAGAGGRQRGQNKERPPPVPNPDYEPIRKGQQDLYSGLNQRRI

binding result [1] | binding result [2] | binding result (human CD3 on human PBMC) | Kd [3] [nM] | binding result [4] | Binder
binds | binds | binds | 4.5 | – | C3E-7034 (humanized anti-CD3 scFv) (scFv) scFv: GEVQLVESGGGLVQPGGSLRLSCAASGVTFNYYGMSWIRQAPGKGLEWVASITNSGGRIYYPDSVKGRFTISRENTQKTLYLQMNSLRAEDTAVYYCTLDGRDGWVAYWGQGTLVTVSSGGGGSGGGGSGGGGSNFMLTQPHSVSESPGKTVTISCKRNTGNIGSNYVNWYQQHEGSSPTTIIYRDDKRPDGVSDRFSGSIDRSSKSASLTISNLKTEDEADYFCQSYSSGFIFGGGTKLTVLGAAAGAGGDYKDDDDKGAAAHHHHHH
– | – | – | – | binds | HT1-11 scFv (humanized anti-TROP2 scFv) (scFv, The scFv was detected through its His tag) scFv: QVQLVQSGAEVKKPGASVKVSCKASGYTFTTAGMQWVRQAPGQGLEWMGWINTHSGVPKYAEDFKGRVTISADTSTSTAYLQLSSLKSEDTAVYYCARSGFGSSYWYFDVWGQGTLVTVSSGGGGSGGGGSGGGGSDIQMTQSPSSLSASVGDRVTITCKASQDVSTAVAWYQQKPGKAPKLLIYSASYRYTGVPSRFSGSGSGTDFTLTISSLQPEDFAVYYCQQHYITPLTFGQGTKLEIKRTGAAAHHHHHH
